Measurements published in article PMC4003280, “Structural basis for the Nanos-mediated recruitment of the CCR4–NOT complex and translational repression” (Genes & Development, 2014).
One block for each binder: values may come before it.

Legend:
[1] = molecular target: T1, CNOT1 SHD (residues 1833–2361), MBP tag removed (human, UniProt A5YKK6 1833-2361); assay: crystal structure; CNOT1 SHD with synthetic Nanos1 NIM peptide; vapor diffusion at 22°C, 0.7-0.8 M succinic acid pH 7.0; refined at 2.8 Å; conditions: both partners purified
T1 construct: source: E. coli BL21 (DE3) Star, purified (amylose resin, HiTrapQ, HRV3C digestion, size exclusion chromatography); not shown: MBP, N-terminal, cleaved
T1 sequence (A5YKK6 1833-2361): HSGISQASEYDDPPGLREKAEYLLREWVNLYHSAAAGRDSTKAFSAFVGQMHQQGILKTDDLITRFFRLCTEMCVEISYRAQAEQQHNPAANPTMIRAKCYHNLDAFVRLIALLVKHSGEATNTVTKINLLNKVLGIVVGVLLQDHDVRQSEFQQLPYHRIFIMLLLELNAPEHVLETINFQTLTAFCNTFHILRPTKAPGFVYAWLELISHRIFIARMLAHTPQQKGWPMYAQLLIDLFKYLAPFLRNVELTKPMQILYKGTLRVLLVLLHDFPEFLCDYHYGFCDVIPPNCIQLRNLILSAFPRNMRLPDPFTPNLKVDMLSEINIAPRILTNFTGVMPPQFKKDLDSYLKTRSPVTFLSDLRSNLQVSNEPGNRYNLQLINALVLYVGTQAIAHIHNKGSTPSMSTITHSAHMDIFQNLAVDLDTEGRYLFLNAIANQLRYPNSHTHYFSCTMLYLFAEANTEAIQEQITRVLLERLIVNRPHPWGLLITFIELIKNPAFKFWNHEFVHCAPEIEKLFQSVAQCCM

[2] = molecular target: T2, MBP-CNOT1 SHD (human, UniProt A5YKK6 1833-2361); assay: pull-down; GST pull-down in vitro with recombinant proteins expressed in E. coli; GST-NIM as bait; conditions: both partners purified
T2 construct: also called isolated CNOT1 SHD; NOT1 superfamily homology domain; source: E. coli BL21 (DE3) Star, purified (amylose resin, HiTrapQ, Superdex 200); not shown: MBP, N-terminal, kept
T2 sequence (A5YKK6 1833-2361): as above

B1: Nanos1 NIM peptide (residues 40–56) (peptide, UniProt Q8WY41 40-56, looked up)
peptide: FSSWNDYLGLATLITKA
notes: Nanos1, H. sapiens, NIM, residues 40–56; also called NIM peptide of Nanos1; Nanos1 peptide; source: synthetic peptide (EMC Microcollections)
binding result [1]: binds

B2: GST-Nanos3 NIM (domain or fragment, human, UniProt P60323 4-20, looked up)
chain: FDLWTDYLGLAHLVRAL
notes: Nanos3, human, NIM, residues 4-20; also called conserved motif of Nanos3 fused to glutathione S-transferase; GST-tagged Nanos3 NIM; source: E. coli BL21 (DE3) Star, purified (described in the Supplemental Material)
binding result [2]: binds

Now from value to binder:

binding result [2]: binds
B3: GST-Nanos2 NIM (domain or fragment, human, UniProt P60321 6-22, looked up)
chain: FDMWKDYFNLSQVVWAL
notes: Nanos2, human, NIM, residues 6-22; also called conserved motif of Nanos2 fused to glutathione S-transferase; GST-tagged Nanos2 NIM; source: E. coli BL21 (DE3) Star, purified (described in the Supplemental Material)

binding result [2]: binds
B4: GST-Nanos1 NIM (domain or fragment, human, UniProt Q8WY41 40-56, looked up)
chain: FSSWNDYLGLATLITKA
notes: Nanos1, human, NIM, residues 40-56; also called conserved motif of Nanos1 fused to glutathione S-transferase; GST-tagged Nanos1 NIM; source: E. coli BL21 (DE3) Star, purified (described in the Supplemental Material)
